Positions count from the first letter of the chain named.
T1: construct 84: Construct containing the full length OX40 sequence (human, UniProt P43489 29-277)
T1 construct: On transiently transfected FreeStyle 293-F cells; also called human OX40 (full length, on 293-F cells)
T1 sequence: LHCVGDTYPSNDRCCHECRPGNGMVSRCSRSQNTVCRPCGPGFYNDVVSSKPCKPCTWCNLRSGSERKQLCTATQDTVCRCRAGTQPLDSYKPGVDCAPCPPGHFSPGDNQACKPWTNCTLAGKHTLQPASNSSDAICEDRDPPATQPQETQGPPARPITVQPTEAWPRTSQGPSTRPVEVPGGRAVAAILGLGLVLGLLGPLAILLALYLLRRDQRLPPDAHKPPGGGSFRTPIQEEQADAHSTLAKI

T2: chimeric OX40 construct 1548: Human OX40 with mouse module 3 and domains 4A and 4B (aa 108-167) (human; mouse, UniProt P47741 104-165)
T2 construct: domain: module 3 and domains 4A and 4B; On 293-F cells; limits derived as for 1544
T2 sequence: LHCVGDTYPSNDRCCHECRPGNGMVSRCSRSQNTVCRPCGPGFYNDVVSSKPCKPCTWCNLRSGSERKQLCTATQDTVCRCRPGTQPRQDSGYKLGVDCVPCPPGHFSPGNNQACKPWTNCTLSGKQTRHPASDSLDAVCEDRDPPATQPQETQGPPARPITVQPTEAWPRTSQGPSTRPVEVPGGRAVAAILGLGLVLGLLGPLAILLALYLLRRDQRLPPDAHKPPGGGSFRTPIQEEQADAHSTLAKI

T3: chimeric OX40 construct 1547: Human OX40 with mouse domain 2B, module 3 and domain 4A (aa 83-141) (human; mouse, UniProt P47741 79-139)
T3 construct: domain: 2B, module 3 and domain 4A; On 293-F cells; limits derived as for 1544
T3 sequence: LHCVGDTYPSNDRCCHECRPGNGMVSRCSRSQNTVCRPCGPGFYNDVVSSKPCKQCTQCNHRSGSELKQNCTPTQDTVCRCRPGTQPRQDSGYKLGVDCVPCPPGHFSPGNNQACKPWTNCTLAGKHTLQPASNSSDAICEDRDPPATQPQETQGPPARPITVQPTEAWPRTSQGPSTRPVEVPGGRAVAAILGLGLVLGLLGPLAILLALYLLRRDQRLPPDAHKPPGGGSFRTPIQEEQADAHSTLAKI

T4: chimeric OX40 construct 1546: Human OX40 with mouse domains 2A, 2B and module 3 (aa 66-126) (human; mouse, UniProt P47741 62-124)
T4 construct: domain: 2A, 2B and module 3; On 293-F cells; limits derived as for 1544
T4 sequence: T3 sequence with G40E, P41T, D46E, V47A, S49N, S50Y, K51D, P52T, N111D

T5: chimeric OX40 construct 1544: Human OX40 with mouse domains 1A, 1B and 2A (aa 30-81) (human; mouse, UniProt P47741 26-77)
T5 construct: domain: 1A, 1B and 2A; On transiently transfected FreeStyle 293-F cells
T5 sequence: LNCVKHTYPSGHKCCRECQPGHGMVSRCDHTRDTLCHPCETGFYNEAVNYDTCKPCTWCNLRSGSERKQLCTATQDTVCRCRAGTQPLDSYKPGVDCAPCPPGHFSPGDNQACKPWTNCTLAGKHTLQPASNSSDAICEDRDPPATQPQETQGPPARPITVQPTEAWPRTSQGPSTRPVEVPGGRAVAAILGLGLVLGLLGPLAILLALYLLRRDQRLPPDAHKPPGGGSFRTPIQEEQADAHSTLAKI

T6: chimeric OX40 construct 1545: Human OX40 with mouse domains 1B, 2A and 2B (aa 43-107) (human; mouse, UniProt P47741 39-103)
T6 construct: domain: 1B, 2A and 2B; On 293-F cells; limits derived as for 1544
T6 sequence: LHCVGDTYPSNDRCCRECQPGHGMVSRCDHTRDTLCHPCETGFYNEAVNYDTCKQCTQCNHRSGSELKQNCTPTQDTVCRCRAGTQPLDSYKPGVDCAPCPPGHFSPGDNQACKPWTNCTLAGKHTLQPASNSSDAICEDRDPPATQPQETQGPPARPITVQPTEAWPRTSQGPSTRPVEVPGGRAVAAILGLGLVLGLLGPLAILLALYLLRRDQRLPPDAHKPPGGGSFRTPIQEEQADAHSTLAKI

B1: human OX40L (hOX40L, RnD Systems) (ligand, UniProt P23510 51-183, looked up)
chain: QVSHRYPRIQSIKVQFTEYKKEKGFILTSQKEDEIMKVQNNSVIINCDGFYLISLKGYFSQEVNISLHYQKDEEPLFQLKKVRSVNSLMVASLTYKDKVYLNVTTDNTSLDDFHVNGGELILIHQNPGEFCVL
notes: also called human OX40 ligand
B2: bispecific molecule 1526/1585 (bispecific antibody, human IgG1, kappa)
heavy: not shown
light: DIQMTQSPSSLSASVGDRVTITCRASQSISSYLNWYQQKPGKAPKLLIYAASSLQSGVPSRFSGSGSGTDFTLTISSLQPEDFATYYCQQYGSDSLLTFGQGTKLEIKRTVAAPSVFIFPPSDEQLKSGTASVVCLLNNFYPREAKVQWKVDNALQSGNSQESVTEQDSKDSTYSLSSTLTLSKADYEKHKVYACEVTHQGLSSPVTKSFNRGECSGGGGSGGGGSAPLKIQAYFNETADLPCQFANSQNLSLSELVVFWQDQENLVLNEVYLGKERFDSVDSKYMGRTSFDSDSWTLRLHNLQIKDKGRYQCIIHHKKPTGMINIHQMNSELSVLA
B3: anti-OX40 antibody 1526/1527 (antibody, V domains shown)
VH: EVQLLESGGGLVQPGGSLRLSCAASGFTFSGYSMYWVRQAPGKGLEWVSGIGYSGYGTYYADSVKGRFTISRDNSKNTLYLQMNSLRAEDTAVYYCARYYFHDYAAYSLDYWGQGTLVTVSS
VL: DIQMTQSPSSLSASVGDRVTITCRASQSISSYLNWYQQKPGKAPKLLIYAASSLQSGVPSRFSGSGSGTDFTLTISSLQPEDFATYYCQQYGSDSLLTFGQGTKLEIK
notes: Tested as IgG
B4: anti-OX40 antibody 1482/1483 (antibody, V domains shown)
VH: EVQLLESGGGLVQPGGSLRLSCAASGFTFSSYAMSWVRQAPGKGLEWVSYISYYSGYTYYADSVKGRFTISRDNSKNTLYLQMNSLRAEDTAVYYCARGYGYLDYWGQGTLVTVSS
VL: DIQMTQSPSSLSASVGDRVTITCRASQSISSYLNWYQQKPGKAPKLLIYAASSLQSGVPSRFSGSGSGTDFTLTISSLQPEDFATYYCQQYGSLLTFGQGTKLEIK
notes: Tested as IgG
B5: anti-OX40 antibody 1168/1135 (antibody, V domains shown)
VH: EVQLLESGGGLVQPGGSLRLSCAASGFTFSGSSMSWVRQAPGKGLEWVSSISYYGGYTYYADSVKGRFTISRDNSKNTLYLQMNSLRAEDTAVYYCARYFPHYYFDYWGQGTLVTVSS
VL: not shown
notes: Tested as IgG
B6: anti-OX40 antibody 1542/1135 (antibody, V domains shown)
VH: EVQLLESGGGLVQPGGSLRLSCAASGFTFGSSSMYWVRQAPGKGLEWVSGIGYYSYSTSYADSVKGRFTISRDNSKNTLYLQMNSLRAEDTAVYYCARGYPHHYFDYWGQGTLVTVSS
VL: not shown
notes: Tested as IgG

Target: T1, construct 84: Construct containing the …
Assay: flow cytometry on human/mouse OX40 chimeras
Procedure: (§1) The mouse/human chimeras were transiently transfected into FreeStyle 293-F cells (Invitrogen), incubated 48 hours in FreeStyle 293 expression medium (Invitrogen) 37 C, 8% CO₂, 135 rpm. The transfected cells were incubated with human OX40 antibodies, human OX40L (hOX40L, RnD Systems), mouse OX40L (mOX40L, RnD Systems) and controls for 30 min 4° C. and then detected with a-huIgG-PE (Jackson lmmunoresearch) 30 min 4° C. Cells were analyzed with FACS Verse (BD Biosciences). Binding to the different chimeric constructs were calculated as relative (mean fluorescence intensity) MFI compared to the binding of the isotype control.

Row | binding result | Binder
1 | binds | B1

Target: CTLA-4 (BMS, Orencia) (human, UniProt P16410 38-152)
Assay: cell-based or functional assay

Sequence of CTLA-4 (BMS, Orencia) (P16410 38-152 limits assumed): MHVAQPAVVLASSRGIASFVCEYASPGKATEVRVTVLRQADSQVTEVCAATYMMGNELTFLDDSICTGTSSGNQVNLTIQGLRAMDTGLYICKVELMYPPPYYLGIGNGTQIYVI

Row | Mean IL-2 level (pg/ml) induced at 1.5 nM bispecific antibody or control [pg/mL] | Binder
2 | 3200 | B2

Target: T1, construct 84: Construct containing the …
Assay: flow cytometry, transfected 293-F cells
Procedure: as §1

Row | relative MFI compared to isotype control | Binder
3 | 21.4 | B3
4 | 24.9 | B4
5 | 29.6 | B5
6 | 29.4 | B6

Target: T2, chimeric OX40 construct 1548: Human …
Assay: flow cytometry, transfected 293-F cells
Procedure: as §1

Row | relative MFI compared to isotype control | Binder
7 | 12.7 | B3
8 | 1.1 | B4
9 | 1 | B5
10 | 1.2 | B6

Target: T3, chimeric OX40 construct 1547: Human …
Assay: flow cytometry, transfected 293-F cells
Procedure: as §1

Row | relative MFI compared to isotype control | Binder
11 | 1 | B3
12 | 1 | B4
13 | 1 | B5
14 | 1 | B6

Target: T4, chimeric OX40 construct 1546: Human …
Assay: flow cytometry, transfected 293-F cells
Procedure: as §1

Row | relative MFI compared to isotype control | Binder
15 | 0.9 | B3
16 | 0.9 | B4
17 | 0.9 | B5
18 | 0.9 | B6

Target: T5, chimeric OX40 construct 1544: Human …
Assay: flow cytometry, transfected 293-F cells
Procedure: as §1

Row | relative MFI compared to isotype control | Binder
19 | 1.1 | B3
20 | 8.4 | B4
21 | 13.2 | B5
22 | 7.1 | B6

Target: T6, chimeric OX40 construct 1545: Human …
Assay: flow cytometry, transfected 293-F cells
Procedure: as §1

Row | relative MFI compared to isotype control | Binder
23 | 1.3 | B3
24 | 44.4 | B4
25 | 46.6 | B5
26 | 40.2 | B6
